Test results taken from PMC7735993, “Role of Arabidopsis Splicing factor SF1 in Temperature-Responsive Alternative Splicing of FLM pre-mRNA”.

Target: His-AtSF1(1-562) (Arabidopsis thaliana, UniProt Q9LU44 1-562)
Assay: EMSA; 23 C; unlabeled self competitor (10-200x) reduces shift; LightShift Chemiluminescent RNA EMSA kit, 23 C, 30 min, 8% native PAGE; buffer, salt and pH not stated
Conditions: protein: recombinant; tags: His; label: 3' biotin

Sequence of His-AtSF1(1-562) (Q9LU44 1-562): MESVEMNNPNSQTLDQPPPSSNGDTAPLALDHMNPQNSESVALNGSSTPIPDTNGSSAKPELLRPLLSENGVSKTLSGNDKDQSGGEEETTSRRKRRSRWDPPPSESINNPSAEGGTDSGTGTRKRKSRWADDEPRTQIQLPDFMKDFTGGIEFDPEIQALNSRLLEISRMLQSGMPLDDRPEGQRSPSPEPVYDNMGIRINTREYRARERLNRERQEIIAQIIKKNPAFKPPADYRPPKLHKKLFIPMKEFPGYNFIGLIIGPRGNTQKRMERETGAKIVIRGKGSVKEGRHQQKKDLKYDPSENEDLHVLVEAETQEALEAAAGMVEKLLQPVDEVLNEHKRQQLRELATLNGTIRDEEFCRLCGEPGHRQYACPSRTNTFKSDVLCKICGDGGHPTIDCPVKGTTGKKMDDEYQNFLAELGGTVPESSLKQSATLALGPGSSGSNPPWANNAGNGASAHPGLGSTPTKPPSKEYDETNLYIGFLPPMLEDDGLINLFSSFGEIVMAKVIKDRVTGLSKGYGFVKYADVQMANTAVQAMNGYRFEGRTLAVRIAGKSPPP

Binder | binding result
UUCUAAUGCAUUUUUGUUUUAUCU (ssRNA) [FLM BP1] | binds
UUCUAAUAUUCUUCUGGAUGCGGUUUUUGGUGUUAU (ssRNA) [FLM BP2] | binds
